Measured values reported in the Human Domainome abundance scans (Beltran et al. 2025).
± gives the uncertainty stated by the source.

B1: Zinc finger homeobox protein 4, residues 2183 to 2238; numbered along this chain, Q86UP3 (parent)
chain: SSRTRFTDYQLRVLQDFFDTNAYPKDDEIEQLSTVLNLPTRVIVVWFQNARQKARK
B2: SWI/SNF complex subunit SMARCC2, residues 599 to 641; numbered along this chain, Q8TAQ2 (parent)
chain: REWTEQETLLLLEALEMYKDDWNKVSEHVGSRTQDECILHFLR

Variants of: B1
Assay: abundance fitness (aPCA) (normalised: wild type 0, dead -1); higher = more abundant; growth selection in yeast, the domain comes from the species named
Conditions: Homo sapiens

Abundance fitness: each site, then its substitutions
K53: E 0.262 ± 0.11, F 0.036 ± 0.15, G 0.023 ± 0.073, H 0.126 ± 0.17, I -0.124 ± 0.16, L 0.144 ± 0.085, M 0.119 ± 0.15, P -0.054 ± 0.12, Q -0.155 ± 0.11, R -0.137 ± 0.079, S -0.06 ± 0.095, T 0.028 ± 0.12, W -0.178 ± 0.1, Y -0.223 ± 0.19
A54: C 0.062 ± 0.17, D -0.068 ± 0.12, E -0.013 ± 0.23, F -0.06 ± 0.12, G -0.06 ± 0.12, H -0.039 ± 0.094, I -0.096 ± 0.13, K -0.232 ± 0.23, L -0.079 ± 0.093, M -0.013 ± 0.2, N 0.081 ± 0.12, P -0.073 ± 0.088, Q 0.01 ± 0.17, R -0.179 ± 0.1, T -0.1 ± 0.097, V -0.053 ± 0.1, W -0.211 ± 0.18, Y -0.277 ± 0.15
R55: A -0.111 ± 0.13, C -0.104 ± 0.22, D -0.041 ± 0.21, E -0.129 ± 0.19, F -0.369 ± 0.27, G -0.048 ± 0.092, H 0.187 ± 0.18, I 0.307 ± 0.23, L 0.223 ± 0.13, M 0.154 ± 0.3, P -0.113 ± 0.15, Q -0.1 ± 0.34, S -0.069 ± 0.14, T 0.004 ± 0.19, V -0.161 ± 0.12, W -0.286 ± 0.14, Y 0.176 ± 0.39
K56: C -0.27 ± 0.27, D -0.06 ± 0.23, E -0.547 ± 0.29, G -0.038 ± 0.19, H -0.012 ± 0.23, I -0.238 ± 0.38, L -0.33 ± 0.37, M -0.079 ± 0.24, N -0.248 ± 0.18, P 0.04 ± 0.38, Q -0.178 ± 0.27, R -0.188 ± 0.14, S -0.366 ± 0.15, T 0.029 ± 0.24, Y 0.061 ± 0.21

Variants of: B2
Assay: as above
Conditions: Homo sapiens

Abundance fitness: each site, then its substitutions
L11: H -0.457 ± 0.21, D -0.801 ± 0.16, P -1.19 ± 0.38, A -0.364 ± 0.085, R -0.635 ± 0.14, M -0.357 ± 0.17, Q -0.556 ± 0.12, K -0.588 ± 0.25, W -0.619 ± 0.12, I -0.564 ± 0.28, E -0.628 ± 0.13
M17: G -0.154 ± 0.072, K 0.077 ± 0.084, L 0.052 ± 0.074, Y -0.084 ± 0.11, P -0.501 ± 0.16, S -0.167 ± 0.086, H -0.348 ± 0.19, R 0.118 ± 0.061, Q 0.013 ± 0.072
A14: V -1.08 ± 0.17, T -0.864 ± 0.16, D -0.806 ± 0.45, E -0.776 ± 0.3, W -1.39 ± 0.24, N -0.57 ± 0.28, P -0.987 ± 0.21, L -0.778 ± 0.084
T4: S 0.056 ± 0.067, W -0.623 ± 0.14, C -0.705 ± 0.17, N 0.18 ± 0.092, I 0.029 ± 0.24, V -0.552 ± 0.081, A -0.309 ± 0.084
I38: T 0.26 ± 0.074, K 0.347 ± 0.079, P -0.367 ± 0.14, L 0.12 ± 0.068, C 0.203 ± 0.13, R 0.428 ± 0.09, W -0.24 ± 0.099, Q 0.098 ± 0.14
E13: H -0.264 ± 0.17, G -0.215 ± 0.074, F -0.887 ± 0.27, T -0.181 ± 0.079, V -0.469 ± 0.089, D -0.182 ± 0.11
W3: T -0.202 ± 0.15, C -0.518 ± 0.19, N -0.226 ± 0.13, Y -0.354 ± 0.23, D 0.1 ± 0.12, I -0.275 ± 0.41, K 0.681 ± 0.43, G -0.424 ± 0.13, S -0.317 ± 0.1
L15: M 0.436 ± 0.093, C 0.087 ± 0.1, D 0.232 ± 0.26, H 0.551 ± 0.098, Y 0.278 ± 0.081, A 0.409 ± 0.064, E 0.241 ± 0.065, T 0.301 ± 0.095
R32: M -0.202 ± 0.15, F -0.417 ± 0.33, A -0.456 ± 0.093, S -1.07 ± 0.17, W -0.583 ± 0.15, K 0.207 ± 0.1
Q6: M 0.144 ± 0.073, Y -0.206 ± 0.31, E -0.485 ± 0.16, T -0.191 ± 0.11, N 0.046 ± 0.18, I -0.04 ± 0.37, K -0.167 ± 0.12, F -0.211 ± 0.13, L -0.116 ± 0.068
E7: Y -1.26 ± 0.23, W -1.27 ± 0.45, A -0.448 ± 0.19, Q 0.1 ± 0.13, K -0.921 ± 0.19
Y18: C -0.501 ± 0.11, N -0.003 ± 0.12, S -0.286 ± 0.071, I -0.152 ± 0.15, D -0.283 ± 0.11, R -0.626 ± 0.084, Q -0.478 ± 0.11
L42: Q 0.351 ± 0.098, S 0.376 ± 0.057, H 0.615 ± 0.16, W 0.049 ± 0.14
D21: Y -0.541 ± 0.33, T -0.336 ± 0.15, V -0.496 ± 0.09, A -0.172 ± 0.095, M -0.747 ± 0.3, S -0.057 ± 0.064, Q -0.122 ± 0.086, G -0.315 ± 0.1
Q34: M -0.282 ± 0.16, A -0.235 ± 0.1, T 0.185 ± 0.077, K 0.316 ± 0.13, L -0.073 ± 0.073, R 0.014 ± 0.068
F41: C -0.425 ± 0.2, R 0.501 ± 0.084, E 0.354 ± 0.11, V -0.452 ± 0.083, N 0.581 ± 0.11, T 0.047 ± 0.079, Q 0.375 ± 0.088, P 0.43 ± 0.076, S 0.324 ± 0.066, H 0.442 ± 0.077
L10: F -0.27 ± 0.13, I -0.35 ± 0.097, D -0.224 ± 0.19, P -0.422 ± 0.23, S -0.009 ± 0.064
S31: Y 0.015 ± 0.14, R -0.219 ± 0.11, E 0.12 ± 0.34, M 0.042 ± 0.1, N 0.057 ± 0.099, D 0.06 ± 0.091, W -0.024 ± 0.24, H -0.085 ± 0.14, F -0.411 ± 0.19
S26: A 0.303 ± 0.087, I -0.449 ± 0.16, Y -0.252 ± 0.12, P -0.444 ± 0.12, E 0.081 ± 0.12, H 0.095 ± 0.065, T 0.115 ± 0.08, Q -0.449 ± 0.15
D20: P 0.055 ± 0.088, I -0.777 ± 0.4, F -0.357 ± 0.12, L -0.448 ± 0.075, W -0.237 ± 0.076, A -0.181 ± 0.071, K 0.054 ± 0.11, M -0.361 ± 0.36
T33: E -0.263 ± 0.23, G 0 ± 0.087, D 0.079 ± 0.23, P -0.17 ± 0.12, L -0.019 ± 0.075
E2: A 0.077 ± 0.058, S 0.37 ± 0.076, L 0.21 ± 0.071, F -0.463 ± 0.28, N 0.317 ± 0.092, C -0.52 ± 0.18, Y 0.42 ± 0.16
E5: A -0.227 ± 0.11, P -0.39 ± 0.079, N -0.362 ± 0.097, R -0.339 ± 0.091, M -0.026 ± 0.16, Y 0.116 ± 0.12
E36: P -0.783 ± 0.29, G -0.844 ± 0.23, R -0.873 ± 0.15
W22: F -0.389 ± 0.12, A -0.791 ± 0.11, T -0.433 ± 0.11, H -0.231 ± 0.18, Y -0.115 ± 0.32
D35: S 0.087 ± 0.072, T -0.213 ± 0.12, H 0.108 ± 0.1, F -0.284 ± 0.16
K24: A 0.124 ± 0.066, F 0.058 ± 0.13, T -0.005 ± 0.065, D -0.366 ± 0.12
V25: N -0.275 ± 0.17, P -0.823 ± 0.22, Y -0.798 ± 0.42, Q -0.853 ± 0.24, F -0.349 ± 0.17
T8: W -0.205 ± 0.076, R 0.354 ± 0.054, I 0.046 ± 0.099, L -0.001 ± 0.082, K 0.075 ± 0.087
R1: V 0.316 ± 0.067, F 0.36 ± 0.11, I 0.382 ± 0.083, C 0.225 ± 0.075, Q 0.526 ± 0.23, K 0.35 ± 0.12
K19: R -0.115 ± 0.069, F -0.151 ± 0.11, A -0.26 ± 0.074, T -0.003 ± 0.083, H -0.272 ± 0.074, E 0.019 ± 0.091, C -0.314 ± 0.073, N 0.29 ± 0.14
C37: R -0.697 ± 0.079, F -0.361 ± 0.31, K -0.328 ± 0.22, G -0.833 ± 0.15, W -0.924 ± 0.15, T -0.525 ± 0.17
H28: T -0.256 ± 0.22, P -0.86 ± 0.17, I -0.265 ± 0.1, Y -0.225 ± 0.13, E -0.748 ± 0.41, S -0.747 ± 0.13, W -0.138 ± 0.24
L39: V -0.009 ± 0.075, W -0.29 ± 0.34, S 0.071 ± 0.093, P -0.24 ± 0.12, G 0.149 ± 0.079, F -0.024 ± 0.18, Y -0.108 ± 0.23, Q 0.08 ± 0.28
G30: S -0.143 ± 0.084, E 0.092 ± 0.1, H -0.711 ± 0.12, R -0.211 ± 0.088, D -0.07 ± 0.14, Y -0.143 ± 0.25, W -0.832 ± 0.23
E16: Y -0.54 ± 0.11, F -0.372 ± 0.15, G -0.152 ± 0.075, H -0.294 ± 0.29
V29: H -0.931 ± 0.23, F -0.668 ± 0.33, T -0.297 ± 0.3, S -1.3 ± 0.37, P -0.865 ± 0.11, W -0.931 ± 0.21, A -0.695 ± 0.17
L9: H 0.247 ± 0.066, G 0.147 ± 0.074, S 0.144 ± 0.055, A 0.142 ± 0.064, V -0.023 ± 0.085, P -0.307 ± 0.072, D -0.093 ± 0.09, F -0.16 ± 0.11, I 0.11 ± 0.096
H40: Q -0.052 ± 0.17, P -0.589 ± 0.096, L -0.41 ± 0.081
E27: P -0.677 ± 0.25, H -0.407 ± 0.18, N -0.042 ± 0.095, D -0.209 ± 0.14
N23: V 0.059 ± 0.067, T 0.033 ± 0.069, D 0.109 ± 0.11, G 0.112 ± 0.059, M 0.025 ± 0.13
L12: C -0.351 ± 0.33
